Reference: patent US20060024291A1 (DOHENY EYE INSTITUTE, published 2006)

Biological target: T1, protocadherin-42 (human, UniProt Q08174 58-1060)
T1 construct: Full length human cDNA expressed in mouse L cells (pRC/RSV-pc42); tested on the transfected cells or in their extracts; also called pc42; human pc42
T1 sequence: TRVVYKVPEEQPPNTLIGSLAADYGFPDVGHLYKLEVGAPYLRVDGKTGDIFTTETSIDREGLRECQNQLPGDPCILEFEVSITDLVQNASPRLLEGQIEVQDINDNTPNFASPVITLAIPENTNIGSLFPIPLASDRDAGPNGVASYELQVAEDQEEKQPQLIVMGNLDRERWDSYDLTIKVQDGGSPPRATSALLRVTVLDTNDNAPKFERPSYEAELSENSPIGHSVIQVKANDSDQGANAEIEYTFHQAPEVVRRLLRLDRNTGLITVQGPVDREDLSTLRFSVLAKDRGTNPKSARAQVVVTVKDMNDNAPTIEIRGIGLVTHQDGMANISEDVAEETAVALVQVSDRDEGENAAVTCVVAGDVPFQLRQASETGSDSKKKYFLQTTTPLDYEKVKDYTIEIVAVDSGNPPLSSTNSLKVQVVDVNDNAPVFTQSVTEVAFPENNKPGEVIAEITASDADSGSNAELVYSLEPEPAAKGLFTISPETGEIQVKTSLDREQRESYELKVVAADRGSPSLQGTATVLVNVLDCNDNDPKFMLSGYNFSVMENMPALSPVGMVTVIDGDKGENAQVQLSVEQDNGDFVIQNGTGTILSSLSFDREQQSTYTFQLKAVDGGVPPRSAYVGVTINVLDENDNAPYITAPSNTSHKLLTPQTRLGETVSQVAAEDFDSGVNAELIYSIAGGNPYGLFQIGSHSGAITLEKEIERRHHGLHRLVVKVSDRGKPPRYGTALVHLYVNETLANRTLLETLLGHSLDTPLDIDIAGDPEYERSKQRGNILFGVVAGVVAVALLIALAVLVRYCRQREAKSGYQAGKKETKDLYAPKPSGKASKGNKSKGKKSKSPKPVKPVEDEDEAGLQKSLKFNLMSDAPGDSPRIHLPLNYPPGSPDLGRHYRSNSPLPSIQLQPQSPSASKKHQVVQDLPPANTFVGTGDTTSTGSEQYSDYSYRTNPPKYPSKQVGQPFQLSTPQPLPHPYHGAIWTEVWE
Experiment: mixed cell aggregation assay, DiO-labelled pc43 transfectants with unlabelled pc42 transfectants
Procedure: The cell aggregation properties of the transfected L cells expressing protocadherin proteins were examined. Transfected L cells were cultured in Dulbecco's Modified Eagles Medium (DMEM) (Gibco, Grand Island, N.Y.) supplemented with 10% fetal bovine serum at 37° C. in 5% CO₂. Cells grown near confluence were treated with 0.01% trypsin in the presence of 1 mM EGTA for 25 minutes on a rotary shaker at 37° C. and collected by centrifugation. The cells were washed three times with Ca²⁺ free HEPES-buffered saline (HBS) after adding soybean trypsin inhibitor, and were resuspended in HBS containing 1% BSA. The cell aggregation assay [Urushihara et al., Dev. Biol., 70: 206-216 (1979)] was performed by incubating the resuspended cells in a 1:1 mixture of DMEM and HBS containing 1% BSA, 2 mM CaCl₂ and 20 μg/ml of deoxyribonucelease on a rotary shaker at 37° C. for 30 minutes to 6 hours.
This is in contrast to the cell aggregation that occurs with classic cadherins in similar experiments (Nagafuchi et al., supra, and Hatta et al., supra). […] Similar results were obtained when single cell suspensions of transfected cells were prepared by trypsin treatment in the presence of Ca²⁺. No re-aggregation was observed under the same conditions when untransfected L cells or L cells transfected with pRC/RSV vector alone were tested.

B1: protocadherin-43 (receptor)
chain: VIHYEIPEEREKGFAVGNVVANLGLDLGSLSARRFPVVSGASRRFFEVNRETGEMFVNDRLDREELCGTLPSCTVTLELVVENPLELFSVEVVIQDINDNNPAFPTQEMKLEISEAVAPGTRFPLESAHDPDLGSNSLQTYELSRNEYFALRVQTREDSTKYAELVLERALDREREPSLQLVLTALDGGTPALSASLPIHIKVLDANDNAPVFNQSLYRARVPGGCTSGTRVVQVLATDLDEGPNGEIIYSFGSHNRAGVRQLFALDLVTGMLTIKGRLDFEDTKLHEIYIQAKDKGANPEGAHCKVLVEVVDVNDNAPEITVTSVYSPVPEDASGTVIALLSVTDLDAGENGLVTCEVPPGLPFSLTSSLKNYFTLKTSADLDRETVPEYNLSITARDAGTPSLSALTIVRVQVSDINDNPPQSSQSSYDVYIEENNLPGAPILNLSVWDPDAPQNARLSFFLLEQGAETGLVGRYFTINRDNGIVSSLVPLDYEDRREFELTAHISDGGTPVLATNISVNIFVTDRNDNAPQVLYPRPGGSSVEMLPRGTSAGHLVSRVVGWDADAGHNAWLSYSLFGSPNQSLFAIGLHTGQISTARPVQDTDSPRQTLTVLIKDNGEPSLSTTATLTVSVTEDSPEARAEFPSGSAPREQKKNLTFYLLLSLILVSVGFVVTVFGVIIFKVYKWKQSRDLYRAPVSSLYRTPGPSLHADAVRGGLMSPHLYHQVYLTTDSRRSDPLLKKPGAASPLASRQNTLRSCDPVFYRQVLGAESAPPGQQAPPNTDWRFSQAQRPGTSGSQNGDDTGTWPNNQFDTEMLQAMILASASEAADGSSTLGGGAGTMGLSARYGPQFTLQHVPDYRQNVYIPGSNAH
notes: Full length human cDNA expressed in mouse L cells (pRC/RSV-pc43); tested on the transfected cells or in their extracts; also endogenous pc43 in human tissue sections; also called pc43; human pc43
B1: no binding.
